B1: INTS4 (parent)
chain: YSSGEFSSGRKWGDDAPKEEVDTG

Variants of: B1
Experiment: protein stability index of a GFP-peptide fusion (GPS, HEK-293T) (PSI 1-6); higher = more stable
Conditions: c terminus: a fixed tail appended
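Note: lentivirally expressed fusions sorted by FACS into six bins by GFP to DsRed ratio, PSI derived from sequencing read proportions per bin multiplied by bin number.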

Protein stability index: each site, then its substitutions
A16: G 2.16 | Y 2.56 | F 2.3 | H 1.92 | E 2.99 | P 2.32 | T 2.28 | K 2.19 | S 2.63 | C 2.71 | L 2.48 | V 2.42 | W 2.01 | D 2.95 | I 2.28 | N 2.09 | R 2.71 | M 2.52 | Q 2.71
K18: A 3.05 | C 2.62
G9: K 1.28 | I 1.84 | Q 2.35 | V 3.12 | S 2.63 | L 2.49 | P 2.27 | R 2.32 | T 2.3 | W 1.43 | Y 2.44 | M 1.83 | N 2.59
R10: D 3.93 | P 2.3 | L 2 | V 2.5 | K 2.81 | T 2.8 | W 1.65 | H 2.85 | F 1.74 | M 1.52 | Y 2.41 | I 2.13 | E 3.65 | S 3.19 | G 2.93 | N 2.63 | C 2.47 | A 2.35 | Q 1.98
P17: N 2.87 | V 2.74 | K 2.31 | Q 2.35 | E 2.8 | T 2.96 | W 2.9 | D 3.06 | I 2.44 | S 3.25 | M 2.39 | A 2.84 | F 2.45 | C 2.64 | G 2.09 | H 1.47 | Y 1.99 | L 2.57 | R 2.01
D14: L 1.98 | F 2.59 | K 1.71 | N 2.59 | Y 2.48 | I 1.54 | G 1.22 | Q 1.41 | V 2.01 | M 1.94 | E 2.32 | W 2.2 | P 2.04 | C 1.79 | A 2.54 | S 2.19 | H 2.73 | T 1.94 | R 2.02
W12: E 3.84 | Y 2.57 | V 3.08 | Q 3.17 | N 3.3 | C 2.7 | D 3.21 | H 3.29 | M 2.85 | R 2.86 | A 3.22 | L 3.24 | T 3.08 | P 2.92 | G 3.11 | K 2.94 | F 2.96 | S 4.44 | I 3.2
D15: E 3.12 | T 2.28 | P 1.96 | C 2.5 | A 1.78 | V 1.78 | R 1.92 | N 2.34 | F 3.02 | S 2.54 | K 2.18 | H 1.81 | L 2.04 | Q 2.12 | I 1.11 | W 1.69 | G 2.07 | Y 2.01 | M 1.78
K11: S 3.02 | P 2.08 | N 3.21 | T 2.31 | Q 2.83 | H 2.45 | R 1.97 | Y 3.31 | M 2.62 | I 1.78 | L 1.91 | F 1.9 | A 2.7 | G 2.98 | E 3.25 | C 1.93 | D 2.73 | V 2.39 | W 1.94
G13: S 2.94 | L 2.35 | D 2.5 | N 3.13 | T 2.5 | I 2.48 | F 2.65 | H 3.66 | A 2.65 | W 2.44 | Y 2.81 | E 3.02 | K 2.5 | R 2.15 | V 2.47 | C 2.65 | P 2.6 | Q 3.38 | M 2.45
